# Measured values taken from IntAct's records for PubMed 24612608.
# B1: Beta-secretase 1 (Homo sapiens), P56817 (parent)
# chain: MAQALPWLLLWMGAGVLPAHGTQHGIRLPLRSGLGGAPLGLRLPRETDEEPEEPGRRGSFVEMVDNLRGKSGQGYYVEMTVGSPPQTLNILVDTGSSNFAVGAAPHPFLHRYYQRQLSSTYRDLRKGVYVPYTQGKWEGELGTDLVSIPHGPNVTVRANIAAITESDKFFINGSNWEGILGLAYAEIARPDDSLEPFFDSLVKQTHVPNLFSLQLCGAGFPLNQSEVLASVGGSMIIGGIDHSLYTGSLWYTPIRREWYYEVIIVRVEINGQDLKMDCKEYNYDKSIVDSGTTNLRLPKKVFEAAVKSIKAASSTEKFPDGFWLGEQLVCWQAGTTPWNIFPVISLYLMGEVTNQSFRITILPQQYLRPVEDVATSQDDCYKFAISQSSTGTVMGAVIMEGFYVVFDRARKRIGFAVSACHVHDEFRTAAVEGPFVTLDMEDCGYNIPQTDESTLMTIAYVMAAICALFMLPLCLMVCQWRCLRCLRQQHDDFADDISLLK
# partner: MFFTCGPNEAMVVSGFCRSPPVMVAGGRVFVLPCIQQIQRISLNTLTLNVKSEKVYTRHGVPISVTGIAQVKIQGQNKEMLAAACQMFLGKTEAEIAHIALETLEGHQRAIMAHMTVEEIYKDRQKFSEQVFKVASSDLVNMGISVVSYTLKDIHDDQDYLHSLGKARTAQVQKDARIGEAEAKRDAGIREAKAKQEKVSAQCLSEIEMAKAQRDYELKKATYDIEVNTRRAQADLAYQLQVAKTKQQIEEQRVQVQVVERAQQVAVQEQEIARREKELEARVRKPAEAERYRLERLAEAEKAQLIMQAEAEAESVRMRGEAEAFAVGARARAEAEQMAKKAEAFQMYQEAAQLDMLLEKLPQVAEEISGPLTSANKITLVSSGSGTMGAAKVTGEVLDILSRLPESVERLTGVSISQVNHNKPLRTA
# Variants of: B1
# Settings: with flot1_rat Flot1, Q9Z1E1
row,Variant,effect of a mutation on the interaction
1,L499A;L500A,disrupting interaction
